Laboratory results taken from patent EP2970434B1 (The Regents of the University of California, dated 2018).
Blank lines part the entries; values can stand above or below the molecule they belong to.

How the values were obtained:
[1] = target: Glu-plasminogen (Homo sapiens (Human)) (UniProt P00747); test: competition of Glu-Plg (2 µM) binding to PMA-stimulated U937 cells by µ-plasmin-KD1L17R-KT complex, read by plasmin generation; Kd from IC50 by Cheng-Prusoff
[2] = target: T1, tissue plasminogen activator (Alteplase) (UniProt P00750 36-562); test: SPR, lower end tied to tPA by paragraph 202
T1 construct: also called tPA

Glu-plasminogen [3] = target: T2, Glu-plasminogen (Homo sapiens (Human), UniProt P00747 20-810, Native glycoprotein; the glycans are not carried by the letters.); test: SPR, upper end tied to Glu-Plg by paragraph 202
T2 construct: also called Glu-Plg

[4] = target: T1, tissue plasminogen activator (Alteplase); test: SPR (Biacore T100, 25 °C), tPA on CM5 chip, 1:1 binding model
Glu-plasminogen [5] = target: T2, Glu-plasminogen; test: SPR (Biacore T100, 25 °C), Glu-Plg on CM5 chip, 1:1 binding model
human plasmin [6] = target: T3, human plasmin (human, UniProt P00747 97-810, limits assumed); test: plasmin amidolytic activity inhibition, S-2251 substrate, 3 nM plasmin, tight-binding equation
human plasmin [7] = target: T3, human plasmin; test: cell-based or functional assay
human plasmin [8] = target: T3, human plasmin; test: plasmin amidolytic activity inhibition, S-2251 substrate
[9] = target: T4, active site-blocked human plasmin (human, UniProt P00747 97-810, limits assumed, active site blocked with a chloromethylketone inhibitor (e.g., D-Val-Phe-Lys chloromethylketone dihydrochloride)); test: SPR (BiaCore), active site-blocked plasmin on CM5 chip, polypeptide as analyte at 1-10 µM
T4 construct: also called immobilized plasmin

[10] = target: T5, factor VIIa-tissue factor (soluble human tissue factor 100 nM and factor VIIa 50 nM) (human), P08709; test: factor VIIa-tissue factor amidolytic activity inhibition, S-2288 substrate; conditions: remark: other sources report otherwise
T5 chain 1: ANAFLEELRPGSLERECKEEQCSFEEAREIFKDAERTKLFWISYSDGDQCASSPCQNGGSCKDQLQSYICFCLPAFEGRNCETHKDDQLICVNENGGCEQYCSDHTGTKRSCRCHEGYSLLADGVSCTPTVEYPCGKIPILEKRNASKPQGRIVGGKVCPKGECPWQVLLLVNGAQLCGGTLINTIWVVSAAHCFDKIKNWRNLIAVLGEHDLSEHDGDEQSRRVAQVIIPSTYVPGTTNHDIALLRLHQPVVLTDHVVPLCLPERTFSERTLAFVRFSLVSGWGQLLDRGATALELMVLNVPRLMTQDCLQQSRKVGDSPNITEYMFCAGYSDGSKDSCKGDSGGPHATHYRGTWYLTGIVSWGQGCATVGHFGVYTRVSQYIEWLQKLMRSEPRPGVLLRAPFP
T5 chain 2: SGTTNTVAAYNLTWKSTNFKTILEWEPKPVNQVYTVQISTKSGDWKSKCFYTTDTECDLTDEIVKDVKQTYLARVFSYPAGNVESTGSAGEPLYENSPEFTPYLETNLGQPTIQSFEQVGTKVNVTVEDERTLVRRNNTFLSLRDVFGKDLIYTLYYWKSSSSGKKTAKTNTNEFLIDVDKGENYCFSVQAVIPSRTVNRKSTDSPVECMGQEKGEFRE

[11] = target: T4, active site-blocked human plasmin; test: SPR (BiaCore), active site-blocked plasmin on CM5 chip, polypeptide as analyte at 1-12 µM

T2 sequence (P00747 20-810 limits assumed): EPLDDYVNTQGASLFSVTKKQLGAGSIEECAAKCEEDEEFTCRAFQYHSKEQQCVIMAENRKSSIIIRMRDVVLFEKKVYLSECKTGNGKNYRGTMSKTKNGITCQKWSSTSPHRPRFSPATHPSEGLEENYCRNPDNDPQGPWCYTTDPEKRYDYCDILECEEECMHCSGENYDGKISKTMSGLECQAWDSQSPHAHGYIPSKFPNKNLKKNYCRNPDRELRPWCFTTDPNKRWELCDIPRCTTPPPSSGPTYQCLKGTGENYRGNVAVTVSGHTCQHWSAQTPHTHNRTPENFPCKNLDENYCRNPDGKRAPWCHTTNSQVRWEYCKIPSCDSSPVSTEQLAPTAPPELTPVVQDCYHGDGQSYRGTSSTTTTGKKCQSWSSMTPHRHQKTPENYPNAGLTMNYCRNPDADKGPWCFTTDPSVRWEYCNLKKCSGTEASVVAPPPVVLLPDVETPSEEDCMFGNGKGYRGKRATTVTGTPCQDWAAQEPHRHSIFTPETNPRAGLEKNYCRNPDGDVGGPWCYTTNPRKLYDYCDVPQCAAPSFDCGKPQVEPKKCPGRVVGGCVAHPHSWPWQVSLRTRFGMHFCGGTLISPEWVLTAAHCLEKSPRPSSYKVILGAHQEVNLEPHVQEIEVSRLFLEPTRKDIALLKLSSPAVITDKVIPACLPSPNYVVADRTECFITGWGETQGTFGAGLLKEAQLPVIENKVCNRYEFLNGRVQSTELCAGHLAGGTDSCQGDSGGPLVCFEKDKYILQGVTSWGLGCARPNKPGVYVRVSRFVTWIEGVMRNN
T4 sequence (P00747 97-810 limits assumed): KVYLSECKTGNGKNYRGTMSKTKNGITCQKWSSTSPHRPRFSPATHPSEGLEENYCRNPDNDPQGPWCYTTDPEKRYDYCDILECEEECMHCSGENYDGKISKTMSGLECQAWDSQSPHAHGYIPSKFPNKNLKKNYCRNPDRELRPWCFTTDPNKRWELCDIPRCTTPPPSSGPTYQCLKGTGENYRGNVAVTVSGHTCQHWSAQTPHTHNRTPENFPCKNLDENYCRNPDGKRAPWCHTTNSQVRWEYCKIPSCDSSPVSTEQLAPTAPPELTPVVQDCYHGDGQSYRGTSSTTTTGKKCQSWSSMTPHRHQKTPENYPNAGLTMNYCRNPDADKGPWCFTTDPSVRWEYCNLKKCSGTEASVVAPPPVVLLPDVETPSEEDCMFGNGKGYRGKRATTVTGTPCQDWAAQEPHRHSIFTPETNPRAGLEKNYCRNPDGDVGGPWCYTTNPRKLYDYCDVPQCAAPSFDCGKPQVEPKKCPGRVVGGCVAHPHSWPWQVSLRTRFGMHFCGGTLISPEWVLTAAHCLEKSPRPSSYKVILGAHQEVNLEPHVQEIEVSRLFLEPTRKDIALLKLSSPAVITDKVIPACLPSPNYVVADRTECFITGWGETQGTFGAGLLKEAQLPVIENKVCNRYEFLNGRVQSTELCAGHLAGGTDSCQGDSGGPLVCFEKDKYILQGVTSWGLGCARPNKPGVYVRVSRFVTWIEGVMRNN
T3 sequence (P00747 97-810 limits assumed): as above
T1 sequence (P00750 36-562 limits assumed): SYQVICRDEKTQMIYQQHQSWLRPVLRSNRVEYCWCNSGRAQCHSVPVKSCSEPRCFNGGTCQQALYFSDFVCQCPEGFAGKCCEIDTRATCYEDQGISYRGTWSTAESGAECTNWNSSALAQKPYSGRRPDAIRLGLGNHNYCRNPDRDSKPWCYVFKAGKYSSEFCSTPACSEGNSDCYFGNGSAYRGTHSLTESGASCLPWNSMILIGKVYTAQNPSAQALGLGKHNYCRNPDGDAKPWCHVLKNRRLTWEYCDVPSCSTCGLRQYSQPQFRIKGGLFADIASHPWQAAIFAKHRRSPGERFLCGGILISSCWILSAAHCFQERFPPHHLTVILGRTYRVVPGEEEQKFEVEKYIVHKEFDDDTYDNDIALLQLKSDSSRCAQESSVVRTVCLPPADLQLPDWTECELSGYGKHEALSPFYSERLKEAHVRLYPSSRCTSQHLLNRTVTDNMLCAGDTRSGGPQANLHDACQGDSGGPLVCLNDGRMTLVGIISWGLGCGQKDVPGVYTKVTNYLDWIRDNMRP
Chain of Glu-plasminogen (Homo sapiens (Human)) (P00747 20-810 limits assumed): as the sequence (P00747 20-810 limits assumed) above

B1: KD1L17R-KT (designed binder)
chain: GNNAEICLLPLDYGPCRARLLRYYYDRYTQSCRQFLYGGCEGNANNFYTWEACDDACWRIEKVPK
notes: Both have C-terminal lysine; also called IIa cleaved KD1L17R-VT
Kd [2]: 200 to 300 nM
Kd (Glu-plasminogen [3]): 200 to 300 nM
Kd [4]: 210 nM
koff [4]: 0.00019 s⁻¹
kon [4]: 910 M⁻¹ s⁻¹
Kd (Glu-plasminogen [5]): 280 nM
koff (Glu-plasminogen [5]): 0.00031 s⁻¹
kon (Glu-plasminogen [5]): 1100 M⁻¹ s⁻¹
Ki (human plasmin [6]): 1 nM

B2: plasmin-inhibiting polypeptide comprising the amino acid sequence set forth in SEQ ID NO:5 (designed binder)
chain: NAEICLLPLDYGPCRARLLRYYYDRYTQSCRQFLYGGCEGNANNFYTWEACDDACWRIEK
notes: Expressed in E. coli; also called 60A
IC50 (nM), inhibition of plasmin activity (S2251 hydrolysis) (human plasmin [7]): 3.4 nM
Ki (human plasmin [8]): 2.36 nM
Kd [9]: 130 nM

B3: plasmin-inhibiting polypeptide comprising the amino acid sequence set forth in SEQ ID NO:3 (designed binder)
chain: NAEICLLPLDTGPCRARLLRYYYDRYTQSCRQFLYGGCEGNANNFYTWEACDDACWRIEK
notes: Expressed in E. coli; also called DM; 60B
IC50 (nM), inhibition of plasmin activity (S2251 hydrolysis) (human plasmin [7]): 1.8 nM
Ki (human plasmin [8]): 0.49 nM
Ki [10]: 5870 nM
Kd [9]: 313 nM

Second part, the molecule after the results:

Kd [1]: 300 nM
Molecule: µ-plasmin-KD1L17R-KT complex (from UniProt P00747 561-580; P00747 581-810)

IC50 (nM), inhibition of plasmin activity (S2251 hydrolysis) (human plasmin [7]): 0.8 nM
B4: plasmin-inhibiting polypeptide comprising the amino acid sequence set forth in SEQ ID NO:4 (designed binder)
chain: NAEICLLPLDTGPCRARLLRYYYDRYTQSCRQFLYGGCEGNANNFYTWEACDDACWRIEKVPK

IC50 (nM), inhibition of plasmin activity (S2251 hydrolysis) (human plasmin [7]): 1.8 nM
Kd [11]: 290 nM
B5: plasmin-inhibiting polypeptide comprising the amino acid sequence set forth in SEQ ID NO:6 (designed binder)
chain: NAEICLLPLDYGPCRARLLRYYYDRYTQSCRQFLYGGCEGNANNFYTWEACDDACWRIEKVPK
notes: Purified recombinant polypeptide; also called 63-residue
